The source of these data is patent publication US20250092124A1 (YUNNAN BAIYAO GROUP, published 2025).

Read-outs that look alike come from different tables or passages of the source.

The target of assay [1] is T1, GDF15-mFC protein (human; mouse, UniProt Q99988 197-308).
T1 construct: extracellular domain;domain: IgG2a-FC; also called GDF15-mFc fusion protein
T1 sequence (looked up): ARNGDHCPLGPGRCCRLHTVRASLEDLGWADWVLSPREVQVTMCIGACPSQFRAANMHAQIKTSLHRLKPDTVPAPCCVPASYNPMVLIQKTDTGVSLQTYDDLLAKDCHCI
The assay can be described thus: blocking ELISA, GFRAL-hIgG1 Fc coated (competitor), GDF15-mFC 20 ng/well mixed with antibody. How it is done: (§1) A fusion protein comprising the extracellular region of GFRAL protein (Genbank accession number NM_207410.2) and human IgG1-FC (Genbank accession number CAC20454.1) was diluted to 1 g/ml with coating solution, followed by adding to ELISA plate at 50 μl/well and incubating at 4° C. overnight. The solution in the wells was discarded and the plate was washed 3 times with washing solution, each time for 3-5 minutes, and dried via tapping. 200 μl of blocking solution was added to each well followed by incubating at 4° C. overnight. The plate was washed 3 times with washing solution, and the coated plate may be stored at −20° C. or 4° C. for future use.
(§2) The antibodies to be tested, positive control antibody AV380-mIgG1 and blank control (PBS) were added to the wells. […] At the same time, GDF15-mFC protein (GDF15: Genbank accession number NM_004864.3; mFC: Genbank accession number AAH31470.1) was added at 20 ng/well and mixed with the antibodies to be tested. The wells were incubated at 37° C. for 1 hour, washed, and dried via tapping. Then the enzyme-labeled secondary antibody, horseradish peroxidase-labeled goat anti-mouse IgG (SIGMA, catalog number A9044-2 ml) was added to each well, at a dilution of 1:10000, 50-100 μl/well. The wells were incubated at 37° C. for 2 hours, washed, and dried via tapping. 100 μl of freshly prepared developing solution TMB was added to each well and incubated at 37° C. for 30 minutes. 2 mol/L H₂SO₄ was added to terminate the reaction, and the OD value was obtained on an enzyme-linked immunosorbent reader.
For orientation: ELISA stands for enzyme-linked immunosorbent assay.

For assay [2], the target named is T2, fusion protein comprising the extracellular region of human GDF15 protein and human IgG1-FC (human, UniProt Q99988 197-308, limits assumed).
T2 construct: extracellular domain
T2 sequence (looked up): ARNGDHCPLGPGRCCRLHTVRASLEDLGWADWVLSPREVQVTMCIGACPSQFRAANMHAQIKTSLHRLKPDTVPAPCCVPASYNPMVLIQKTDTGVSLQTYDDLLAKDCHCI
Put plainly: ELISA, human GDF15-hIgG1 Fc coated, HRP anti-mouse IgG. How it is done:
as §1, with “human GDF15” for “GFRAL”, “NM_004864.3)” for “NM_207410.2)”, “[…]” for “g/ml”, “by” for “via”, “and incubated” for “followed by incubating”
(§3) The antibodies to be tested (purified antibodies from hybridoma, see Table 1), positive control antibody AV380-mIgG1 (its sequence is from Aveo Oncology; see SEQ ID NO. 1 and SEQ ID NO. 2 for its heavy chain and light chain variable regions, respectively; see SEQ ID NO. 3 and SEQ ID NO. 4 for its heavy chain and light chain constant regions, respectively) and blank control (PBS) were added to the wells. […] The wells were incubated at 37° C. for 1 hour, washed, and dried via tapping. Then the enzyme-labeled secondary antibody, horseradish peroxidase-labeled goat anti-mouse IgG (SIGMA, catalog number A9044-2 ml) was added to each well, at a dilution of 1:10000, 100 μl/well. The wells were incubated at 37° C. for 2 hours, washed, and dried via tapping. 100 μl of freshly prepared developing solution TMB was added to each well and incubated at 37° C. for 30 minutes.
(§4) 2 mol/L H₂SO₄ was added to terminate the reaction, and the OD values were read on enzyme-linked immunosorbent reader. The results were shown in Table 1-1, Table 1-2 and FIGS. 1-1 and 1-2.

Assay [3] concerns the target T3, fusion protein comprising the extracellular region of monkey GDF15 protein and human IgG1-FC (monkey (cyno); human, UniProt G7PWZ3 197-308, limits assumed).
T3 construct: extracellular domain; also called cynoGDF15
T3 sequence (looked up): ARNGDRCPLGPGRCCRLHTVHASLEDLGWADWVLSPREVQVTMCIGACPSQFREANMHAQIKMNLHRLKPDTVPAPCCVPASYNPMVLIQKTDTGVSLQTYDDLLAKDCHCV
The assay can be described thus: ELISA, monkey GDF15-hIgG1 Fc coated, HRP anti-mouse IgG. The procedure:
as §3
(§5) The experiment was performed as detailed in Example 2, except that the fusion protein in Example 2 was replaced with a fusion protein comprising the extracellular region of monkey GDF15 protein (Genbank accession number EHH29815.1) and human IgG1-FC (Genbank accession number CAC20454.1). The results were shown in Table 2-1, Table 2-2 and FIGS. 2-1 and 2-2.

Assay [4] addresses T4, GDF15-HIS (ACROBiosystems, CAT #: GD5-H5149) (human, UniProt Q99988 197-308).
T4 construct: Bought protein; also called GDF15 (ACROBiosystems, GD5-H5149); human GDF15; not shown: His tag
T4 sequence (looked up): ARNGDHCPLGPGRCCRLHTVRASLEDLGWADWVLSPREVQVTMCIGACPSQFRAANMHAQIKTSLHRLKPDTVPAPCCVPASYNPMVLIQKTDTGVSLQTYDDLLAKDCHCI
Put plainly: BLI (ForteBio Octet), antibody immobilised, GDF15 200-6.25 nM. (Biolayer interferometry detects binding as a change in optical thickness at a sensor tip.)

Assay [5] deals with T3, fusion protein comprising the …. The assay can be described thus: ELISA, monkey GDF15-hIgG1 Fc coated, HRP anti-mouse IgG. The procedure:
as §3, §5
This is another data set of the same source.

Assay [6] deals with T2, fusion protein comprising the …. The assay can be described thus: ELISA, human GDF15-hIgG1 Fc coated, HRP anti-mouse IgG. The procedure: as §1, with “human GDF15” for “GFRAL”, “NM_004864.3)” for “NM_207410.2)”, “[…]” for “g/ml”, “by” for “via”, “and incubated” for “followed by incubating”
as §3, §4
The source holds these as a separate data set.

Assay [7] deals with T1, GDF15-mFC protein. Put plainly: blocking ELISA, GFRAL-hIgG1 Fc coated (competitor), GDF15-mFC 20 ng/well mixed with antibody. The procedure:
as §1, §2
The source holds these as a separate data set.

The target of another assay is T5, cynoGDF15-mFC (monkey (cyno); mouse, UniProt G7PWZ3 197-308).
T5 construct: also called monkey GDF15 (cynoGDF15)
T5 sequence (looked up): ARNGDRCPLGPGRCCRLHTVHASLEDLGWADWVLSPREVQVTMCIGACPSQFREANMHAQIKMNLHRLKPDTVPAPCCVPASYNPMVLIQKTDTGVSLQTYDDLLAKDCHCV
The assay can be described thus: ELISA, cynoGDF15-mFC coated. The procedure:
The experiment was performed as detailed in Example 2, except that the coating protein was cynoGDF15-mFC (GDF15: Genbank accession number EHH29815.1; mFC: Genbank accession number AAH31470.1), and the antibodies to be tested (the humanized antibodies), negative control antibody (hIgG1), and positive control antibodies Ponsegromab and AV380-hIgG1 were added to each well of the coated plate.

B1: A5 (murine anti-50G3) (antibody, V domains shown)
VH: QVTLKESGPGILKPSQTLSLTCSFSGFSLSTSGMGVGWIRQPSGKGLEWLAHIWWNDDKYYNPSLKSHLTISKDTSRNQVFLMITSVDTADTATYYCARGAYDFFDYWGQGTTLTVSS
VL: DIVMTQAQNFMSTSVGDRVSVTCKASQNVDTNVAWYQQKPGQSPKALIYSASYRYSGVPDRFTGSGSGTDFTLTISNVQSDDLADYFCQQYNTYPYTFGGGTKLEIK
notes: Purified murine hybridoma antibody
B1: the IC50 – broadly, the concentration that gives 50% inhibition – with GDF15-mFC protein [1] is 0.232 mg/L. Also, the EC50 (as a rule, the concentration needed to bring the measured effect to its halfway point) in assay [2] stood at 0.0556 mg/L. This molecule also showed an EC50 in assay [3] of 0.077 mg/L. Besides, in assay [4], the Kd (in general, the equilibrium constant for the complex coming apart) came out at 0.162 nM; the koff (commonly a measure of how fast the partners let go of each other) is 0.000328 s⁻¹; the kon – broadly, the rate constant with which the complex forms – turned out to be 2.02e+06 M⁻¹ s⁻¹.

B2: A4 (murine anti-2A2) (antibody, V domains shown)
VH: QVTLKESGPGILQPSQTLSLTCSFSGFSLTTSGMGVDWIRQSSGKGLEWLAHIYWDDDKRYNPSLKSRLTISKDTSSNQVFLKITSVDTADTATYYCARRAWDAMDYWGQGTSFTVSS
VL: DIVMTQAQKFMSTSVGDRVSVTCKARQNVGTNVAWYQQKPGQSPKALIYSASYRYSGVPDRFTGSGSGTDFTLTISNVQSEDLAEYFCQQYNSYPYTFGGGTKLEIK
notes: as for B1
The molecule B2 displayed an EC50 in assay [5] of 0.0827 mg/L. The molecule also gave an EC50 in assay [6] of 0.046 mg/L. In assay [4], this molecule came in with a Kd of 0.146 nM, a koff of 0.000214 s⁻¹ and a kon of 1.47e+06 M⁻¹ s⁻¹. In addition, the half-maximal inhibitory concentration (IC50) with GDF15-mFC protein [7] is 0.0898 mg/L.

B3: A3 (murine anti-34G9) (antibody, V domains shown)
VH: QVQLKESGPGILQPSQTLSLTCSFSGFSLNTAGMTVGWIRQPSGKGLEWLAHIWWNDDKYYNPALKSRLTISKDTSNNQIFLEIASVVTADTATYYCTRIATMNYAMDYWGQGTSVTVSS
VL: DIVMTQAPASLAVSLGQRATISCRASQSVSTSSFSYMHWYQQKPGQPPKLLIKYASNLESGVPARFSGSGSGTDFTLNIHPVEEEDTATYYCQHSWEIPYTFGGGTKLEIK
notes: as for B1
Molecule B3 showed an EC50 in assay [5] of 0.157 mg/L. The same molecule had an EC50 in assay [6] of 0.109 mg/L. In addition, in assay [4], the Kd was found to be 0.0895 nM, the koff came out at 7.2e-05 s⁻¹ and the kon is 805000 M⁻¹ s⁻¹. Besides, in the assay with GDF15-mFC protein [7], the IC50 was determined as 0.0916 mg/L.

B4: A1 (murine anti-53E5) (antibody, V domains shown)
VH: QVQLKESGPGILQPSQTLSLTCSFSGFSLSTSGMGVGWIRQPSGKGLEWLAHILWDDVKRYNPALKSRLTISKDSSNSQIFLKIASVDTADTATYYCVQMAWDWFAYWGQGTLVTVSA
VL: DIVMTQAQKFMSTSVEDRVSVTCKASQNVDTNVAWYQQKPGQSPKALIYSASYRSSGVPDRFTGSGSGTDFTLTISNVQSEDLAEYFCQQYHSYPTFGGGTKLEIK
notes: as for B1
In the assay with GDF15-mFC protein [1], B4 gave an IC50 of 0.186 mg/L. The same molecule registered an EC50 in assay [2] of 0.0455 mg/L. In addition, in assay [3], the EC50 came to 0.0454 mg/L. In assay [4], this molecule came in with a dissociation constant (Kd) of 0.085 nM, a koff of 0.000194 s⁻¹ and a kon of 2.29e+06 M⁻¹ s⁻¹.

B5: A2 (murine anti-53A8) (antibody, V domains shown)
VH: QVQLKESGPGILQPSQTLSLTCSFSGFSLSTSGMGVGWIRQPSGKGLEWLAHIRWDDVKRYNPALKSRLTISKDTSSSQIFLKIASVDTADTATYYCAQMAWDWFAYWGQGTLVTVSA
VL: DIVMTQAQKFMSTSVGDRVSVTCKASQNVDTDVAWYQQKPGQSPKALIYSASYRYSGVPDRFTGSGSGTDFTLTITNVQSEDLAEYFCHQYNSYPTFGGGTKLEIK
notes: Purified murine hybridoma antibody; also called murine antibody 53A8
B5 showed a half-inhibitory concentration (IC50) in the assay with GDF15-mFC protein [1] of 0.205 mg/L. In assay [2], this molecule returned an EC50 of 0.0378 mg/L. Further, the midpoint of the response in assay [3], the EC50, lay at 0.0677 mg/L. Further, in assay [4], the Kd was 0.14 nM, the koff was 0.000318 s⁻¹ and the kon was determined as 2.28e+06 M⁻¹ s⁻¹.

B6: Ponsegromab (antibody, V domains shown)
VH: QVQLVQSGAEVKKPGSSVKVSCKASGYTFSSYNIDWVRQAPGQGLEWMGGINPIFGTAFYNQKFQGRVTITADESTSTAYMELSSLRSEDTAVYYCAREAITTVGAMDHWGQGTLVTVSS
VL: EIVLTQSPATLSLSPGERATLSCRTSQSVHNYLAWYQQKPGQAPRLLIYDASTRADGIPARFSGSGSGTDFTLTISSLEPEDFAVYYCQQFWSWPWTFGQGTKVEIKR
In the assay with cynoGDF15-mFC, B6 returned an EC50 of 0.0697 mg/L and an OD450.Max of 1.07 OD450.

B7: A6 (murine anti-53D10) (antibody, V domains shown)
VH: QVTLKESGPGIVQPSQPFRLTCTFSGFSLSTSGIGITWIRQPSGKGLEWLATIWWDDDNRYNPSLKSRLTVSKDTSNNQAFLNIITVETADTAIYYCVQSAWDWFAYWGQGTLVTVSA
VL: DIVMTQSQKFMSTSVGDRVSVTCKASQNVGTNVAWYQQKSGQSPKALIYSASYRNSGVPDRFTGSGSGTDFTLTISNVESEDLAEYFCQQYNSHPVTFGGGTKLEIK
notes: as for B1
The molecule B7 returned an IC50 in the assay with GDF15-mFC protein [1] of 0.213 mg/L. In assay [2], this molecule displayed a concentration for a half-maximal effect (EC50) of 0.0602 mg/L. This molecule returned a half-maximal effective concentration (EC50) in assay [3] of 0.0555 mg/L. For the same molecule, in assay [4], binding was characterised by a dissociation constant (Kd) of 0.0972 nM, the koff is 0.000217 s⁻¹ and the kon was 2.24e+06 M⁻¹ s⁻¹.
